The values below come from patent US20210269521A1 (L AND L BIOPHARMA, published 2021).

The target in assay [1] is T1, human PD-1 extracellular domain protein expressed in Example 1 (tag not stated) (human, UniProt Q15116 25-170).
T1 construct: extracellular domain; also called PD-1 protein; not shown: human IgG1 Fc or his tag
The experiment in a line: ELISA; pH 5.5, 40°C 10 days. For orientation: An ELISA detects its analyte on a solid surface through an enzyme-linked reagent.

Assay [2] deals with T2, human TIM-3 extracellular domain-human IgG1 Fc fusion protein (human, UniProt Q8TDQ0 22-199).
T2 construct: Made in house or bought (ACROBiosystems TM3-H5258); also called TIM-3-hFc; not shown: human IgG1 Fc
The experiment in a line: ELISA; pH 5.5, 40°C 10 days.

Assay [3] deals with T1, human PD-1 extracellular domain protein …. The experiment in a line: ELISA; 15 mg/mL in preparation buffer (20 mM His pH 6.0), 37°C 0 day (-80°C).
Assay [4] has as its target T2, human TIM-3 extracellular domain-human …. Described as above.

B1: bispecific antibody LB141 (bispecific antibody, human IgG4 S228P, kappa)
light: EIVLTQSPATLSLSPGERATLSCRASKGVSTSGYSYLHWYQQKPGQAPRLLIYLASYLESGVPARFSGSGSGTDFTLTISSLEPEDFAVYYCQHSRDLPLTFGGGTKVEIKRTVAAPSVFIFPPSDEQLKSGTASVVCLLNNFYPREAKVQWKVDNALQSGNSQESVTEQDSKDSTYSLSSTLTLSKADYEKHKVYACEVTHQGLSSPVTKSFNRGEC
heavy: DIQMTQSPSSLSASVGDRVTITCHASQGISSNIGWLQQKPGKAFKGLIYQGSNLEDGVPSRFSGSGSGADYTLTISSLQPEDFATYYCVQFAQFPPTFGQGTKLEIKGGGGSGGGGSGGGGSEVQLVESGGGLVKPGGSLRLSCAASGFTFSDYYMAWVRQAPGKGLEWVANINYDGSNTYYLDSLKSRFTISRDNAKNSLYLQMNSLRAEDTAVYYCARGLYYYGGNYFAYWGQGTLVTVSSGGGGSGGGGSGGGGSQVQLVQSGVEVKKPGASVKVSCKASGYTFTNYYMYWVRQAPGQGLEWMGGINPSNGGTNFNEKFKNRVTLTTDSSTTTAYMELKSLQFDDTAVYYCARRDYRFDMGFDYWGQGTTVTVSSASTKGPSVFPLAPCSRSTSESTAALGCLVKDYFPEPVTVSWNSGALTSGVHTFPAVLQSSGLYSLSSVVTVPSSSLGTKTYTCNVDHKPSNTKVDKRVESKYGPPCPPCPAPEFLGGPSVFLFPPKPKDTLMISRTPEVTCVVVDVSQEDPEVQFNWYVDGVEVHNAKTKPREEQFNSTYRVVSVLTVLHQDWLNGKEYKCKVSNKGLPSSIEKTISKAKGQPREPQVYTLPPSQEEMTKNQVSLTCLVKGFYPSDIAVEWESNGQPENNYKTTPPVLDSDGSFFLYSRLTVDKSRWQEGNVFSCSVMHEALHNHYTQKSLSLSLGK
notes: ab6VL-(G4S)3-ab6VH-(G4S)3-PemVH-hIgG4 with PemVL-κ
With B1, the half-maximal effective concentration (EC50) (commonly the concentration giving half of the maximal effect) in assay [1] is 0.215 nM; in assay [2], 0.373 nM; in assay [3], 0.378 nM; in assay [4] it was 0.303 nM.
